Source: patent US20230265151A1, “GIP/GLP1 CO-AGONIST COMPOUNDS” (priority 2020, published 2023)
*1 amine or outer side, *2 acyl side, *3 side chain or, on linkers, in order; H or OH if unused. Where no end group is shown, it is not given here. Side-chain parts run from the residue outwards. [ ]: non-standard residue; d: D form. The star is where a group is joined. αMePhe(2-F) = C[C@](N)(Cc1ccccc1F)C(=O)O; γGlu = O=C(O)[C@H](CCC(=O)[*:2])N[*:1]; C14 diacid = O=C(O)CCCCCCCCCCCCC(=O)*; αMeY = C[C@](N)(Cc1ccc(O)cc1)C(=O)O; αMeL = CC(C)C[C@](C)(N)C(=O)O; Orn = NCCC[C@H](N)C(=O)O; AEEA = NCCOCCOCC(=O)O; Aib = CC(C)(N)C(=O)O

T1: human GIP receptor (human, UniProt P48546 22-466)
T1 sequence (looked up): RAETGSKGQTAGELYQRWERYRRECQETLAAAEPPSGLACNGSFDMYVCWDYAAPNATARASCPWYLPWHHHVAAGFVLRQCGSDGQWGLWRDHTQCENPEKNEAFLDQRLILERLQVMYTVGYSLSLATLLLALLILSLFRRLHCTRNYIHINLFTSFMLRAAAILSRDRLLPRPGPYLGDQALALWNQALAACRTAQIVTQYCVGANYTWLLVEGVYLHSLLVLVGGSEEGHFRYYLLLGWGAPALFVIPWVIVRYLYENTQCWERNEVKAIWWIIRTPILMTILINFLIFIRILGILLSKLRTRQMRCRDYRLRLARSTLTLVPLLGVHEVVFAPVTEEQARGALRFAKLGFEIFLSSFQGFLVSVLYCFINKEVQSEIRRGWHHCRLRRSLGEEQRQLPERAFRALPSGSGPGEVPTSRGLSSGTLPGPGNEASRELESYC

B1: Example 107 (peptide)
peptide: Y[Aib]EGT[αMePhe(2-F)]TSDK([AEEA-AEEA-γGlu-C14 diacid])SI[αMeL]LD[Orn]IAQ[Aib]EFI[dE][αMeY]LIK([AEEA-AEEA-γGlu-C14 diacid])GGPSSGAPPPS-NH2
modifications: N-terminus assumed
SMILES: CC[C@H](C)[C@H](NC(=O)[C@H](CCCN)NC(=O)[C@H](CC(=O)O)NC(=O)[C@H](CC(C)C)NC(=O)[C@](C)(CC(C)C)NC(=O)[C@@H](NC(=O)[C@H](CO)NC(=O)[C@H](CCCCNC(=O)COCCOCCNC(=O)COCCOCCNC(=O)CC[C@H](NC(=O)CCCCCCCCCCCCC(=O)O)C(=O)O)NC(=O)[C@H](CC(=O)O)NC(=O)[C@H](CO)NC(=O)[C@@H](NC(=O)[C@](C)(Cc1ccccc1F)NC(=O)[C@@H](NC(=O)CNC(=O)[C@H](CCC(=O)O)NC(=O)C(C)(C)NC(=O)[C@@H](N)Cc1ccc(O)cc1)[C@@H](C)O)[C@@H](C)O)[C@@H](C)CC)C(=O)N[C@@H](C)C(=O)N[C@@H](CCC(N)=O)C(=O)NC(C)(C)C(=O)N[C@@H](CCC(=O)O)C(=O)N[C@@H](Cc1ccccc1)C(=O)N[C@H](C(=O)N[C@H](CCC(=O)O)C(=O)N[C@@](C)(Cc1ccc(O)cc1)C(=O)N[C@@H](CC(C)C)C(=O)N[C@H](C(=O)N[C@@H](CCCCNC(=O)COCCOCCNC(=O)COCCOCCNC(=O)CC[C@H](NC(=O)CCCCCCCCCCCCC(=O)O)C(=O)O)C(=O)NCC(=O)NCC(=O)N1CCC[C@H]1C(=O)N[C@@H](CO)C(=O)N[C@@H](CO)C(=O)NCC(=O)N[C@@H](C)C(=O)N1CCC[C@H]1C(=O)N1CCC[C@H]1C(=O)N1CCC[C@H]1C(=O)N[C@@H](CO)C(N)=O)[C@@H](C)CC)[C@@H](C)CC
B2: Example 108 (peptide)
peptide: Y[Aib]EGT[αMePhe(2-F)]TSDK([AEEA-AEEA-γGlu-C14 diacid])SI[αMeL]LD[Orn]IAQ[Aib]EFI[dE][αMeY]LIEGGK([AEEA-AEEA-γGlu-C14 diacid])SSGAPPPS-NH2
modifications: N-terminus assumed
SMILES: CC[C@H](C)[C@H](NC(=O)[C@H](CCCN)NC(=O)[C@H](CC(=O)O)NC(=O)[C@H](CC(C)C)NC(=O)[C@](C)(CC(C)C)NC(=O)[C@@H](NC(=O)[C@H](CO)NC(=O)[C@H](CCCCNC(=O)COCCOCCNC(=O)COCCOCCNC(=O)CC[C@H](NC(=O)CCCCCCCCCCCCC(=O)O)C(=O)O)NC(=O)[C@H](CC(=O)O)NC(=O)[C@H](CO)NC(=O)[C@@H](NC(=O)[C@](C)(Cc1ccccc1F)NC(=O)[C@@H](NC(=O)CNC(=O)[C@H](CCC(=O)O)NC(=O)C(C)(C)NC(=O)[C@@H](N)Cc1ccc(O)cc1)[C@@H](C)O)[C@@H](C)O)[C@@H](C)CC)C(=O)N[C@@H](C)C(=O)N[C@@H](CCC(N)=O)C(=O)NC(C)(C)C(=O)N[C@@H](CCC(=O)O)C(=O)N[C@@H](Cc1ccccc1)C(=O)N[C@H](C(=O)N[C@H](CCC(=O)O)C(=O)N[C@@](C)(Cc1ccc(O)cc1)C(=O)N[C@@H](CC(C)C)C(=O)N[C@H](C(=O)N[C@@H](CCC(=O)O)C(=O)NCC(=O)NCC(=O)N[C@@H](CCCCNC(=O)COCCOCCNC(=O)COCCOCCNC(=O)CC[C@H](NC(=O)CCCCCCCCCCCCC(=O)O)C(=O)O)C(=O)N[C@@H](CO)C(=O)N[C@@H](CO)C(=O)NCC(=O)N[C@@H](C)C(=O)N1CCC[C@H]1C(=O)N1CCC[C@H]1C(=O)N1CCC[C@H]1C(=O)N[C@@H](CO)C(N)=O)[C@@H](C)CC)[C@@H](C)CC
B3: Example 109 (peptide)
peptide: YXEGTXTSDKSIXLDXIAQXKXIXXLIEGGPSSGAPPPS
modifications: Aib2, αMeF(2F)6, αMeL13, Orn16, Aib20, αMeF22, D-Glu24, αMeY25, K10 and K21: K(AEEA2-(γ-Glu)-CO-(CH2)12-CO2H), C-terminal NH2

Assays:
Assay in all cases: cell-based or functional assay
human GIP receptor = target: T1, human GIP receptor
human GLP-1 receptor = human GLP-1 receptor (human, UniProt P43220 24-463)
human glucagon receptor = human glucagon receptor (human, UniProt P47871 26-477)

| Binder | EC50, cAMP (human GIP receptor) [nM] | Emax, cAMP (human GIP receptor) [%] | EC50, cAMP (human GLP-1 receptor) [nM] | Emax, cAMP (human GLP-1 receptor) [%] | EC50, cAMP (human glucagon receptor) [nM] |
| --- | --- | --- | --- | --- | --- |
| B1 | 0.0473 | 94.3 | 1.01 | 93.4 | > 9950 |
| B2 | 0.0249 | 85.2 | 0.701 | 97.6 | > 9950 |
| B3 | 0.0236 | 84.8 | 0.846 | – | > 9950 |
